For data set [1], the target named is T1, ArcA (Escherichia coli (uropathogenic CFT073?)) (UniProt P0A9Q2).
T1 sequence: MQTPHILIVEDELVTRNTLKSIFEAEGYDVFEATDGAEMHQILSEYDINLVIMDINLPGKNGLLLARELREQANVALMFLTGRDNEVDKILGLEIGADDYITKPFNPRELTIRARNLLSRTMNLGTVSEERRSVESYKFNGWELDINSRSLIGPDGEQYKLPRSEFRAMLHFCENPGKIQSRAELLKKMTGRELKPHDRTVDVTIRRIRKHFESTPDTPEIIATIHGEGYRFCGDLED
Nature of the data set: EMSA. The conditions noted are these: 10 mM Tris pH 7.5, 1 mM EDTA, 1 mM DTT, 50 mM KCl, 50 mM MgCl2, 1 ug/ml BSA; 10 nM DNA, protein 0-240 nM; 30 min room temperature (ArcA, RpoN) …. For orientation: A gel shift assay detects complexes by their altered migration in electrophoresis.

Data set [2] has as its system RpoN (sigma54) (Escherichia coli (CFT073?)), ORF:8ae15e91. Description: EMSA. The conditions noted are these: 10 mM Tris pH 7.5, 1 mM EDTA, 1 mM DTT, 50 mM KCl, 50 mM MgCl2, 1 ug/ml BSA; 10 nM DNA, protein 0-240 nM; 30 min room temperature (ArcA, RpoN) ….

Drawing on article PMC5318444, this text covers binding for four sequences.

For “ATCTGTGTGGTAAGAGAATCACCTTTTATTTACTGTGCGGAAAACCGCGCACAAAATAAAAAGAATAAATAATAAAATCATTAAATAACAAAGCGTTATTAAAAAATTAAAGATGGCATAGCTCCTGCAATAGCCAGGCAGGTTTTTTATTTTTCACAATGAGGTGAATATGTCATCAATATCCCATGGCGCACCACAAAAGCGTCGAATTATCCCTAATCCCGGCCTGTGGTT (double strand) [c5038 promoter probe]”, the binding result in data set [1] is given as “no binding”; in data set [2] it was “binds”.
Turning to “ATGTTAAGCATGATAACGCCTTTTAGGGGCAATTTAAAAGTTGGCACAGATTTCGCTTTATCTTTTTTACGGCGACACGGCCCATTTAATTGCAGATTTCGTTACCACGACGACAATGACCAATCCAGGAGAGTTAAAGTATGTCCGCTGAACACGTACTGACGATGCTGAACGAGCACGAAGTGAAGTTTGTTG (double strand) [glnA promoter probe]”, in data set [2], the binding result is on record as “binds”.
Take “GGCGCGTCTTATACTCCCACATAAGCCAGATTCAACAGCGAATACGTCTTCCCCAAATTGCCCACTTCCATACTTCCTCCTTACCAGAAATCTATCCTTAAGCTCCTTAATAACCATTTTCCTGCTAACTAAATTCATGGTTAAGGTTGCATAATGATATGCAACAAATGTATAACATTTTTCTTACCAAAAAATAAACAAAAGCGACCGACAAAAGCATTGGATTACGGCAGGAG (double strand) [kgtP promoter probe]”: the binding entry in data set [1] is “binds”.
Take “TGCGCAATTGTACTTATTGCATTTTTCTCTTCGAGGAATTACCCAGTTTCATCATCCCATTTTATTTTGCGAGCGAGCGCACACTTGTGAATTATCTCAATAGCAGTGTGAAATAACATAATTGAGCAACTGAAAGGGAGTGCCCAATATTACGACATCATCCATCACCCGCGGCATTACCTGATTATGGAGTTCAATATGCAAGCCT (double strand) [xylA promoter probe]”: the binding result in data set [2] is given as “no binding”.
